Assay results taken from the supplement of paper PMC12042874.
± gives the uncertainty stated by the source.

Assay: amyloid nucleation score (Sup35N fusion, yeast selection) (log enrichment); library NNK1; higher = more nucleation; inactive = no reads after selection
In short: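 Plasmid inserts were Illumina-sequenced at input and output from psi-negative yeast expressing Sup35N fused to peptides of 20 random codons. The yeast were induced with 100 μM copper sulfate for 24 hours and grown 7 days at 30°C on medium lacking adenine and uracil, and sequences with under 100 input reads were excluded. Nucleation score is the DiMSum log enrichment of output over input reads, centred on the mode score of non-aggregating sequences.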

| Substance | amyloid nucleation score |
| --- | --- |
| QRECWMYMMFMGYHLLEAQV | 0.215 ± 1.2 |
| QRGMTIL | 0.109 ± 0.31 |
| QRHITSL | -1.37 ± 1.9 |
| QRIFTRLIYIRYAIPKFRTK | -0.399 ± 0.32 |
| QRNHWLYGVTLMPCSHICIL | 7.594 ± 0.053 |
| QRNVPIGLVRYDAV | 0.45 ± 1.1 |
| QRRHYTWMLIRKRSSLHKAR | -0.462 ± 0.59 |
| QSFFHCVLYAIPHVRLS | -1.07 ± 1.1 |
| QSICFYSLKQCIRAKHR | 0.774 ± 0.37 |
| QSNLYLLALELAYECYSGCH | 0.049 ± 0.72 |
| QTGQRFALKDSTSNSIPYLE | -0.607 ± 0.96 |
| QTGRFDIVSAS | 3.52 ± 0.069 |
| QTLGVGSRYVNVNSGLITQL | -0.05 ± 0.29 |
| QTNMMSTHHP | 0.39 ± 0.41 |
| QTRSPQFKPAAYRVFLVDLC | -0.159 ± 0.77 |
| QTRWACTTQCGCKCFFE | 1.53 ± 0.15 |
| QVFVIIIFPCMQWYDMYCSD | 0.356 ± 0.55 |
| QVLQNCRGTFDDRILLFNGI | -0.288 ± 0.8 |
| QVNLANFGRRKCKRKGR | 0.185 ± 0.44 |
| QVSANSY | 3.59 ± 0.082 |
| QVWSPHSVSKFGPGPPVTEA | -0.388 ± 1.4 |
| QWNEDLSLWPDLKYGHMLLS | 0.052 ± 0.52 |
| QYDFQ | -0.532 ± 0.88 |
| QYGWCIAYSLELCSLSPNLI | 0.326 ± 0.37 |
| QYYFDLIDLGITVDVMS | 0.684 ± 0.84 |

| Substance | amyloid nucleation score |
| --- | --- |
| RADPYVYLMEGVCGPRWEPN | 0.014 ± 0.77 |
| RANSGNVTFMVRPAFMVVLK | -0.389 ± 0.78 |
| RANSYGGMSNVLW | 0.281 ± 0.28 |
| RCASALVSGVTSVSLRTVQD | 0.83 ± 0.73 |
| RCCGLYVSLWIS | 0.425 ± 0.6 |
| RCCYCLGLFVWATCVGGVRT | 3.1 ± 0.24 |
| RCDGTQDKCWDKSLLFGERR | 0.618 ± 0.45 |
| RCGLAQSSVSSSVKGPRVTW | -0.31 ± 0.6 |
| RCIVWC | 0.207 ± 0.56 |
| RCLTPVIRVIYFG | -0.13 ± 0.3 |
| RCQNRH | -0.221 ± 0.46 |
| RCVAPAV | 0.151 ± 0.56 |
| RCVSFPIWRFIPEVLVIWLG | -1.04 ± 1.3 |
| RCYCDNFVLGLVEL | 0.267 ± 0.29 |
| RCYYLGHVHRICGRWGWGPR | 0.37 ± 0.52 |
| RDDLNTTWFLGRSTLGLMLW | 0.168 ± 0.6 |
| RDFWVSRTALMGGYWCWL | -0.175 ± 0.35 |
| RDIRVHATDLNENNCVAHCR | -0.356 ± 0.32 |
| RDNFEMFSPAAKYALFASGT | inactive |
| RDRNNCYFSDDSNLREAT | -0.634 ± 0.62 |
| RDTICITL | 0.311 ± 0.82 |
| RDTNKSIQ | 0.208 ± 0.56 |
| RENYRAGTFVYGSPRLGPAW | 0.44 ± 0.88 |
| RFDVSMRYLSRSDVYDICAR | 0.177 ± 0.59 |
| RFEKTWHWSAIAGRQGGGIF | -0.697 ± 0.88 |

| Substance | amyloid nucleation score |
| --- | --- |
| RFFFGYAK | 2.02 ± 0.2 |
| RFGFSLSADIMDPRMIVRCM | -0.227 ± 0.24 |
| RFHNRFLYLFKFIQAQINKC | 0.187 ± 0.41 |
| RFKRWGKR | 0.39 ± 0.41 |
| RFLAWTSLPQGAAKVIMKC | 0.126 ± 0.53 |
| RFLSQNGNLIPGRRLPTGVR | 0.54 ± 0.54 |
| RFLSVISDKTIAYWPSDVVS | 0.377 ± 0.99 |
| RFLYVGCCINTIVGFTWFRS | 3.28 ± 0.11 |
| RFSAK | 0.585 ± 0.33 |
| RFSTTFYSVAVVYKRDSR | 1.86 ± 0.24 |
| RFTSDAQ | -0.524 ± 0.24 |
| RFVRYQSQHFHKLNSWWGCL | 0.135 ± 0.39 |
| RFWINIPKYSTIL | -0.751 ± 1.7 |
| RFYKCVLDVNTHLV | 0.883 ± 0.6 |
| RGEKLQEVMSVGYWIGFFNN | 0.907 ± 0.27 |
| RGELAVRKPG | 0.402 ± 0.28 |
| RGGWRTVQCSLNQGWLRRYL | 0.048 ± 0.42 |
| RGHLKLVTNYISMSRVSYFS | 2.07 ± 0.16 |
| RGLGWHHRLSCYRSAGFARA | -0.719 ± 2.1 |
| RGNDLFTQVASMKSV | -0.207 ± 0.55 |
| RGNPNTVGIITWCDDVFFFQ | 3.07 ± 0.25 |
| RGNVCCTMIC | 6.09 ± 0.074 |
| RGSMSEWNILYVYASIYKGD | 1.6 ± 0.42 |
| RGTWNDMASGEEVVAFIGEY | 0.51 ± 0.35 |
| RHCLKVFSEDTYESVKVVLR | 0.428 ± 0.75 |

| Substance | amyloid nucleation score |
| --- | --- |
| RHSITLFLVTVETVRACVFK | -0.714 ± 1.2 |
| RILEGVFS | inactive |
| RILMFKYGKTWRPQCCQD | 0.04 ± 0.53 |
| RILTDLRKICADCNRILPFW | -0.557 ± 1.2 |
| RIMLFFCCSSKVFDFPVLLM | 6.4 ± 0.064 |
| RIPASFRITYVDSIKCKPF | 4.15 ± 0.088 |
| RIYSFHILVS | -0.629 ± 0.38 |
| RKRNKYILYYRCNRWFQLYC | -0.323 ± 1.6 |
| RKSPATVVFSRPSLWLYGRR | 2.97 ± 0.094 |
| RKWNS | 0.152 ± 0.72 |
| RLAYYFKGNANDFLAYLAKY | -0.66 ± 0.76 |
| RLCRTVEWCGCYSIPNLQCA | 0.118 ± 0.46 |
| RLCWQDIGTLFVSWPRMIFV | 0.071 ± 0.45 |
| RLEYCSRRWLANTLSGGRSL | 0.002 ± 0.96 |
| RLFALLWNDFDRSGVAMPVL | -0.379 ± 0.36 |
| RLFHFWQSDGLVGSTKRVDY | 0.128 ± 0.42 |
| RLFITCRAL | 2.52 ± 0.18 |
| RLFLSLLMKSRTIMRRKGLV | 2.54 ± 0.15 |
| RLGLVVSVGRRRLLTAQLGK | 1.38 ± 0.72 |
| RLKYYNYERFRLVVLCRVHG | -0.053 ± 1.1 |
| RLLEIWFMLRFGLFVSQCTI | -0.148 ± 0.34 |
| RLLGYLAGVGNVKICRPSAV | 0 ± 1 |
| RLLPGFERGVLYYWA | 0.568 ± 0.43 |
| RLMDTYAEAHTQDRDMIRDV | 0.286 ± 0.49 |
| RLQDSLPTSEVTEIPPPAN | -0.405 ± 0.33 |

| Substance | amyloid nucleation score |
| --- | --- |
| RLRSMAAP | 0.513 ± 0.66 |
| RLRTNVLSNRVGDPIMTSHV | 0.158 ± 0.54 |
| RLSIFRLYPLLCRRG | 0.163 ± 0.34 |
| RLTFKYIKFAMS | 0.206 ± 0.36 |
| RLTVTADWHHHWRLVRQFKA | -0.044 ± 0.71 |
| RLVSRPRSLLQCYWGLVC | 0.392 ± 1.4 |
| RLYSYVFSGSPHIGWHLCSM | 3.82 ± 0.11 |
| RLYTFVLPRFILLEKRHSTN | 0.255 ± 0.32 |
| RMALCKSVCFTFWNIF | 3.69 ± 0.13 |
| RMHYIG | 0.106 ± 0.43 |
| RMLFSYPCESISSHLILCEV | -0.181 ± 0.5 |
| RMLLENVSVKRR | 0.678 ± 0.66 |
| RMLLRFYIATGYLWSIQNCR | inactive |
| RMLTARNGLGMMRL | -0.162 ± 1.1 |
| RMMVPYNHFYKSLWSGSTAY | 0.959 ± 0.68 |
| RMVNKTECTRRRIITTSNWI | 0.869 ± 0.81 |
| RMVTTIIERVSIVCMKPSYR | 1.35 ± 0.88 |
| RNASIRVTSQVCYVNS | 1.3 ± 0.27 |
| RNCFMGRTVNSVSNYVESSW | inactive |
| RNELTVFGLISPWESVFNLG | inactive |
| RNHCVYLECFDLVNHWMPKD | -0.24 ± 0.64 |
| RNMVSLRHSEDVICVQDTTP | -0.729 ± 0.34 |
| RNNEDGRLKDRRRGLSHGQG | -0.531 ± 0.31 |
| RNSMGLLAVEDVC | -1.16 ± 0.61 |
| RNSRAMIFEMHVVGLWWQSC | -0.538 ± 2.1 |

| Substance | amyloid nucleation score |
| --- | --- |
| RNTRTDSSTQTLLIVSHH | 0.011 ± 0.51 |
| RNTVQYVFYPQDLWWSAGVQ | 5.429 ± 0.048 |
| RNVLWMILMYRCRSGGLCNG | 0.737 ± 0.52 |
| RNYFCIMYRYRCCKV | 4.23 ± 0.085 |
| RPHSGVIDDL | 0.349 ± 0.51 |
| RPKHTGTINYKHVHTNYVEG | 1.36 ± 0.47 |
| RPLVRQPGEDYIFGLSSMCL | -0.203 ± 0.49 |
| RPMTVSKEAAKSDGCQKLNT | -0.634 ± 0.48 |
| RPNSYGSLWRERIGLIYTYE | 1.33 ± 0.79 |
| RQFRIGNYENFATREWALGL | 1.7 ± 0.14 |
| RQGLGAVVNENV | 0.137 ± 0.43 |
| RQGPGRLHSTCKTL | -0.257 ± 1.4 |
| RQNVQWR | 1.86 ± 0.62 |
| RQYDMDLVWKRSQNARKRS | 0.033 ± 0.7 |
| RRARFFFRGYY | 6.12 ± 0.078 |
| RRAYIYWNRTCFFLVILLFQ | 0.538 ± 0.84 |
| RRLKETKT | inactive |
| RRLTLYANFMRLEILSLNVN | 0.146 ± 0.43 |
| RRMVTCLQLIVRNLRSCACC | inactive |
| RRRMFSCLDPEVWEVQRGRV | -0.348 ± 0.68 |
| RRSPGYMDLCWNGWFGRAVR | 0.207 ± 0.5 |
| RRSQCSVEPGVWHRVRSFLV | 0.35 ± 0.77 |
| RRSYVSSEMNTSKRKSCPLS | 0.659 ± 0.45 |
| RRWGFRAERVL | 0.269 ± 0.61 |
| RRYFSLYLAGSLELMFAWVM | -1.79 ± 2.7 |

| Substance | amyloid nucleation score |
| --- | --- |
| RSFNYVLSTL | 0.45 ± 0.42 |
| RSGIILLVGVS | -0.655 ± 0.68 |
| RSGMFMGDWYSAAWKGKTSS | 0.137 ± 0.31 |
| RSGSLCGFLREKKVRNTFWV | -0.376 ± 0.59 |
| RSPIGGLLWINLRSPACEWG | inactive |
| RSRGCPRIFNGAKC | -0.392 ± 0.23 |
| RSSSYNSLIRKISDKLVGAA | 1.09 ± 0.56 |
| RSVYSDLSQTYRLQDFFETM | -1.69 ± 2.4 |
| RSYESCRAWLDEDGSVPIEC | 1 ± 0.49 |
| RSYSNPLSSVSLSNYSFGVY | -0.353 ± 0.36 |
| RTCHDWVIEGSMRILTARIM | -1.29 ± 1.8 |
| RTDLGVRIKF | 0.77 ± 0.55 |
| RTDWYGEDWHYV | -1.31 ± 1.4 |
| RTEVIKMNLG | -0.085 ± 0.42 |
| RTKLVEHSMFCNGGEKRHTP | 0.574 ± 0.56 |
| RTRLFHDLLLCAAHIRLRIR | 0.133 ± 0.38 |
| RTSLNLNIRNTWAKWLGAEF | 4.29 ± 0.1 |
| RTSLSLSKVAFNWMFQRYSS | 0.181 ± 1 |
| RVAYSGEL | 0.196 ± 0.83 |
| RVDHVGRGQSREGGPDAGRV | 0.217 ± 0.26 |
| RVFLQTGWVCGVRHANNRLR | -0.006 ± 0.87 |
